Assay results: the supplement of paper PMC5998384

Assays:
HeLa Kyoto [1] = experiment: thermal stability score vs G1/S (z-score of summed log2 fold changes over temperatures); higher = more thermally stable than in G1/S
HeLa Kyoto [2] = experiment: melting temperature (median over replicates), in situ; higher = more thermally stable
HeLa Kyoto [3] = experiment: solubility change mitosis vs G1/S (difference of NP-40 vs SDS log2 ratios) (log2 ratio difference); higher = more soluble in mitosis
HeLa Kyoto [4] = experiment: solubility in G1/S (NP-40 vs SDS abundance) (log2 ratio); higher = more soluble; settings: cell cycle stage: G1/S
[5] = cell cycle stage: early G1 (4.5 h after nocodazole release)
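Throughout, for melting temperature (median over replicates), in situ: HeLa Kyoto cells synchronized by double thymidine or nocodazole block, proteins quantified by TMT10plex mass spectrometry, three independent biological replicates.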
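Throughout, for solubility change mitosis vs G1/S (difference of NP-40 vs SDS log2 ratios): synchronized HeLa Kyoto cells (double thymidine block for G1/S, nocodazole release for mitosis), protein amounts in NP-40 versus SDS lysates quantified by mass spectrometry, three biological replicates.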
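Throughout, for solubility in G1/S (NP-40 vs SDS abundance): HeLa Kyoto cells arrested at G1/S by double thymidine block, proteins quantified by TMT10plex mass spectrometry in mild NP-40 versus SDS extracts, three biological replicates.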
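Throughout, for thermal stability score vs G1/S (z-score of summed log2 fold changes over temperatures): synchronized HeLa Kyoto cells, proteins quantified by TMT10plex mass spectrometry, three biological replicates, mitosis taken 0.5 h after nocodazole release, G1/S directly after double thymidine block.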

Row | Sequence | thermal stability score (HeLa Kyoto [1]; [5]) | thermal stability score (HeLa Kyoto [1]; cell cycle stage: mitosis) | melting temperature (HeLa Kyoto [2]; cell cycle stage: G1/S) [°C] | melting temperature (HeLa Kyoto [2]; cell cycle stage: mitosis) [°C] | solubility change mitosis (log2) (HeLa Kyoto [3]) | solubility in G1/S (log2) (HeLa Kyoto [4])
1 | MADLSLLQEDLQEDADGFGVDDYSSESDVIIIPSALDFVSQDEMLTPLGRLDKYAASENIFNRQMVARSLLDTLREVCDDERDCIAVLERISRLADDSEPTVRAELMEQVPHIALFCQENRPSIPYAFSKFLLPIVVRYLADQNNQVRKTSQAALLALLEQELIERFDVETKVCPVLIELTAPDSNDDVKTEAVAIMCKMAPMVGKDITERLILPRFCEMCCDCRMFHVRKVCAANFGDICSVVGQQATEEMLLPRFFQLCSDNVWGVRKACAECFMAVSCATCQEIRRTKLSALFINLISDPSRWVRQAAFQSLGPFISTFANPSSSGQYFKEESKSSEEMSVENKNRTRDQEAPEDVQVRPEDTPSDLSVSNSSVILENTMEDHAAEASGKPLGEISVPLDSSLLCTLSSESHQEAASNENDKKPGNYKSMLRPEVGTTSQDSALLDQELYNSFHFWRTPLPEIDLDIELEQNSGGKPSPEGPEEESEGPVPSSPNITMATRKELEEMIENLEPHIDDPDVKAQVEVLSAALRASSLDAHEETISIEKRSDLQDELDINELPNCKINQEDSVPLISDAVENMDSTLHYIHSDSDLSNNSSFSPDEERRTKVQDVVPQALLDQYLSMTDPSRAQTVDTEIAKHCAYSLPGVALTLGRQNWHCLRETYETLASDMQWKVRRTLAFSIHELAVILGDQLTAADLVPIFNGFLKDLDEVRIGVLKHLHDFLKLLHIDKRREYLYQLQEFLVTDNSRNWRFRAELAEQLILLLELYSPRDVYDYLRPIALNLCADKVSSVRWISYKLVSEMVKKLHAATPPTFGVDLINELVENFGRCPKWSGRQAFVFVCQTVIEDDCLPMDQFAVHLMPHLLTLANDRVPNVRVLLAKTLRQTLLEKDYFLASASCHQEAVEQTIMALQMDRDSDVKYFASIHPASTKISEDAMSTASSTY [PPP4R1] | -0.471 | -0.62 | 51.6 | 50.8 | -0.155 | -0.0857
2 | MADPDVLTEVPAALKRLAKYVIRGFYGIEHALALDILIRNSCVKEEDMLELLKFDRKQLRSVLNNLKGDKFIKCRMRVETAADGKTTRHNYYFINYRTLVNVVKYKLDHMRRRIETDERDSTNRASFKCPVCSSTFTDLEANQLFDPMTGTFRCTFCHTEVEEDESAMPKKDARTLLARFNEQIEPIYALLRETEDVNLAYEILEPEPTEIPALKQSKDHAATTAGAASLAGGHHREAWATKGPSYEDLYTQNVVINMDDQEDLHRASLEGKSAKERPIWLRESTVQGAYGSEDMKEGGIDMDAFQEREEGHAGPDDNEEVMRALLIHEKKTSSAMAGSVGAAAPVTAANGSDSESETSESDDDSPPRPAAVAVHKREEDEEEDDEFEEVADDPIVMVAGRPFSYSEVSQRPELVAQMTPEEKEAYIAMGQRMFEDLFE [GTF2E1] | 2.94 | 5.05 | 48.4 | 49.4 | -0.0795 | -0.111
3 | MADQPKPISPLKNLLAGGFGGVCLVFVGHPLDTVKVRLQTQPPSLPGQPPMYSGTFDCFRKTLFREGITGLYRGMAAPIIGVTPMFAVCFFGFGLGKKLQQKHPEDVLSYPQLFAAGMLSGVFTTGIMTPGERIKCLLQIQASSGESKYTGTLDCAKKLYQEFGIRGIYKGTVLTLMRDVPASGMYFMTYEWLKNIFTPEGKRVSELSAPRILVAGGIAGIFNWAVAIPPDVLKSRFQTAPPGKYPNGFRDVLRELIRDEGVTSLYKGFNAVMIRAFPANAACFLGFEVAMKFLNWATPNL [SLC25A20] | -1.89 | -0.401 | 58 | 56.7 | -0.108 | -0.0167
4 | MADRDSGSEQGGAALGSGGSLGHPGSGSGSGGGGGGGGGGGGSGGGGGGAPGGLQHETQELASKRVDIQNKRFYLDVKQNAKGRFLKIAEVGAGGNKSRLTLSMSVAVEFRDYLGDFIEHYAQLGPSQPPDLAQAQDEPRRALKSEFLVRENRKYYMDLKENQRGRFLRIRQTVNRGPGLGSTQGQTIALPAQGLIEFRDALAKLIDDYGVEEEPAELPEGTSLTVDNKRFFFDVGSNKYGVFMRVSEVKPTYRNSITVPYKVWAKFGHTFCKYSEEMKKIQEKQREKRAACEQLHQQQQQQQEETAAATLLLQGEEEGEED [PURA] | -2.25 | -4.83 | 58 | 56.5 | 0.112 | 0.415
